In US9803013B2, “Biological materials and uses thereof” (BioInvent International AB, priority 2005, dated 2017):

Experiments:
[1] = Limited safety studies in rat, rabbit and monkey; assay type: in vivo
[2] = tested on: panel of ICAM-1-expressing tumor cell lines; test: CDC; assay type: cell-based; details: human serum
Experimental: Target cells were harvested as described above (under ADCC heading) and incubated with antibodies at 5 μg/mL for 60 min on ice and then washed. Human serum, normal or heat-inactivated (Sigma, Sweden), was added to tubes and the samples were incubated for 2 hr at 37° C. After completion of incubation, ToPo-Pro-3 (Invitrogen) was added at a final concentration of 0.3 μM and cells were analyzed for membrane permeabilization using flow cytometry.

[3] = tested on: B lymphoma tissue; test: Immunohistochemistry on cryopreserved lymph node biopsies; assay type: binding, human; set-up: key: Increasing numbers of + indicate stronger staining.; ++: Increasing numbers of + indicate stronger staining.; +++: Increasing numbers of + indicate stronger staining
Experimental: Cryopreserved lymph node biopsies of patients with Anaplastic Large Cell B lymphoma (one patient), Centroblastic/Centrocytic B non-Hodgkin lymphoma (three patients), and B cell chronic lymphocytic leukaemia (one patient) were obtained from the Department of Pathology at Lund University (Lund, Sweden). Eight-micrometer sections of cryo-preserved tissue were fixed in acetone for 10 min at 4° C. Endogenous biotin-binding activity was blocked by sequential treatment with Avidin and Biotin (Avidin/Biotin blocking kit, Invitrogen) for 20 min each.
Tissues were incubated with 5 μg/ml control scFv or B11 scFv for 1 h. Following washing, sections were incubated with biotin-conjugated mouse anti-His mAb (R&D Systems) for 30 min. scFv binding was detected following treatment with ABC Complex/HRP reagent (Dako Cytomation) for 30 min, and subsequent incubation with DAB for 5 min.
Sections were photographed using a Leica DC 300F digital camera mounted on top of a Leica DMR light/fluorescence microscope.

[4] = tested on: RPMI-8226 cells; test: Macrophage ADCP; assay type: cell-based; details: RPMI-8226, human macrophages
Experimental: (§1) Cultured macrophages were detached and plated in flat 96-well plates at 50 000 cells/well and placed in 37° C. CFSE-stained target cells were incubated with antibodies for up to 1 hr on ice. After washing, the different cell solutions were added to the culture plates containing macrophages at a ratio of 5:1 (Target cells:Macrophages). Thereafter, the culture plates were incubated at 37° C. for 1-2 hr (primary patient MM cells) or 16 hr (RPMI-8226 cells). The percentage of macrophages that had phagocytosed tumor cells (CFSE^+, CD206^+) per total analyzed macrophages was determined following gating and acquisition of 5000 CD206^+ cells/sample.
(§2) Buffy coats from healthy human donors were ordered through the local blood central at Lund University Hospital and Halmstad Hospital. Peripheral blood mononuclear cells (PBMCs) were first extracted using Ficoll-Paque PLUS (GE Healthcare Life Sciences), followed by isolation of monocytes with CD14 MicroBeads and MACS separation (Miltenyi Biotec). The monocytes were cultured in RPMI 1640 medium with 10% heat-inactivated FBS (Invitrogen) and 25 ng/mL of recombinant human M-CSF (R&D Systems) for 6-14 days, causing differentiation into macrophages. Medium with M-CSF was changed every 2-3 days upon initiation of cultures.
(§3) RPMI-8226 cells (ATCC) were continuously cultured in RPMI 1640 medium supplemented with 10 mM HEPES, 1 mM sodium pyruvate and 10% FBS. For multiple myeloma cells, freshly isolated bone marrow samples were donated by patients at Lund University Hospital and subsequently processed with Ficoll-Paque PLUS. Negative isolation of malignant plasma cells was then performed using the Plasma Cell Isolation Kit II according to the manufacturer's instructions (Miltenyi Biotec).
(§4) At least 4 h before co-culture with target cells the cultured macrophages were detached with Accutase (Sigma Aldrich), before plated in flat 96-well plates at 50 000 cells/well and placed in 37° C. […] After washing, the different cell solutions were added to the culture plates containing macrophages at a ratio of 5:1 (Target cells:Macrophages). Thereafter, the culture plates were incubated at 37° C. for 1-2 hr (primary patient MM cells) or 16 hr (RPMI-8226 cells). Next, samples were stained with APC-conjugated anti-CD206 antibody (BD Biosciences), before harvested by scraping the culture plate wells. The resulting cell solutions were then analyzed by flow cytometry, where CD206^+ macrophages were gated and acquired at 5000 cells/sample. A cut-off level identifying CFSE^+, CD206^+ double positive (phagocytic) macrophages was set for each experimental sample series. This level differed between the individual assays since the magnitude of basic (unstimulated) phagocytosis varied (different donors and time-points) among the experiments.

[5] = tested on: primary patient's MM cells; test: Macrophage ADCP; assay type: cell-based; details: human macrophages
Experimental: as §1, §2, §3, §4

[6] = tested on: MDA MB 435; test: IgG binding to tumour cell line, flow cytometry MFI; set-up: species or system human; details: MDA MB 435, Melanoma
Source text: The antigen distribution of human antibody targeted antigens, mainly for B11, on different carcinoma cell lines was investigated. Cells (MCF-7 and MDA MB 435S breast carcinoma, JAR and JEG-3 chorio-carcinoma, A549 lung carcinoma, TCC-SUP urinary bladder carcinoma, MDA MB 435 melanoma, HPAC, PANC-1 and BxPC-3 pancreatic carcinoma, PC-3 and DU145 prostate carcinoma, LS174 T, CaCo2, and Lovo colorectal carcinoma, and THP-1 monocytic leukaemia cells), were washed in PBS, and resuspended at 4×10^6 cells/ml in Complete Medium (200,000 cells/50 […] sample). […] Cells were incubated with either of the antibodies for 1 hour on ice, washed by resuspension in PBS/BSA 0.5%, centrifuged at 1200 rpm for 5 min, and complete aspiration of the supernatants was undertaken. Cells were incubated with PE-conjugated Goat F(ab′)2 anti-Human IgG (Caltag Laboratories, Cat no: H10104), diluted 1/50 in PBS/BSA 0.5%, for 30 min, on ice. Following resuspension of in 300 μl PBS/BSA 0.5%, cells were analysed for IgG binding using a FACScan instrument.

B1: B11: fully human IgG1 antibody specific for ICAM-1; VH and VL sequences of FIG. 10 (SEQ ID NOs. 6 and 8) (antibody, listed as Homo sapiens, V domains shown)
VH: EVQLLESGGGLVQPGGSLRLSCAASGFTFSNAWMSWVRQAPGKGLEWVAFIWYDGSNKYYADSVKGRFTISRDNSKNTLYLQMNSLRAEDTAVYYCARYSGWYFDYWGQGTLVTVSS
VL: QSVLTQPPSASGTPGQRVTISCTGSSSNIGAGYDVHWYQQLPGTAPKLLIYDNNNRPSGVPDRFSGSKSGTSASLAISGLRSEDEADYYCQSYDSSLSAWLFGGGTKLTVLG
**Q.** For B1, which “toxicity” value [1] is on record?
**A.** no compound-related off-target toxicity

**Q.** What about the “CDC” value [2] of the same molecule?
**A.** did not induce CDC

**Q.** And the “Staining of B lymphoma tissue” value ([3]; Patient A, B-CLL (low malignant non-Hodgkin Lymphoma))?
**A.** +

**Q.** And the “Staining of B lymphoma tissue” value ([3]; Patient B, Anaplastic Large Cell B Cell Lymphoma)?
**A.** ++

**Q.** And the “Staining of B lymphoma tissue” value ([3]; Patient D, B-CLL/B-PLL)?
**A.** ++

**Q.** What about the “Staining of B lymphoma tissue” value ([3]; Patient F, Centroblastic-Centrocytic B non-Hodgkin Lymphoma) of the same molecule?
**A.** ++

**Q.** And the “ADCP” value [4]?
**A.** conferred ADCP

**Q.** And the “ADCP” value [5]?
**A.** conferred ADCP

**Q.** What about the MFI [6] of the same molecule?
**A.** 4000
